The supplement of paper PMC5998384

Experiments:
HeLa Kyoto [1] = assay: solubility in G1/S (NP-40 vs SDS abundance) (log2 ratio); higher = more soluble; conditions: cell cycle stage: G1/S
HeLa Kyoto [2] = assay: solubility change mitosis vs G1/S (difference of NP-40 vs SDS log2 ratios) (log2 ratio difference); higher = more soluble in mitosis
HeLa Kyoto [3] = assay: thermal stability score vs G1/S (z-score of summed log2 fold changes over temperatures); higher = more thermally stable than in G1/S
HeLa Kyoto [4] = assay: melting temperature (median over replicates), in situ; higher = more thermally stable
[5] = cell cycle stage: early G1 (4.5 h after nocodazole release)
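For melting temperature (median over replicates), in situ in this document: HeLa Kyoto cells synchronized by double thymidine or nocodazole block, proteins quantified by TMT10plex mass spectrometry, three independent biological replicates.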
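For solubility change mitosis vs G1/S (difference of NP-40 vs SDS log2 ratios) in this document: synchronized HeLa Kyoto cells (double thymidine block for G1/S, nocodazole release for mitosis), protein amounts in NP-40 versus SDS lysates quantified by mass spectrometry, three biological replicates.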
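For solubility in G1/S (NP-40 vs SDS abundance) in this document: HeLa Kyoto cells arrested at G1/S by double thymidine block, proteins quantified by TMT10plex mass spectrometry in mild NP-40 versus SDS extracts, three biological replicates.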
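For thermal stability score vs G1/S (z-score of summed log2 fold changes over temperatures) in this document: synchronized HeLa Kyoto cells, proteins quantified by TMT10plex mass spectrometry, three biological replicates, mitosis taken 0.5 h after nocodazole release, G1/S directly after double thymidine block.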

ABCF1, sequence (chain, as listed by the source): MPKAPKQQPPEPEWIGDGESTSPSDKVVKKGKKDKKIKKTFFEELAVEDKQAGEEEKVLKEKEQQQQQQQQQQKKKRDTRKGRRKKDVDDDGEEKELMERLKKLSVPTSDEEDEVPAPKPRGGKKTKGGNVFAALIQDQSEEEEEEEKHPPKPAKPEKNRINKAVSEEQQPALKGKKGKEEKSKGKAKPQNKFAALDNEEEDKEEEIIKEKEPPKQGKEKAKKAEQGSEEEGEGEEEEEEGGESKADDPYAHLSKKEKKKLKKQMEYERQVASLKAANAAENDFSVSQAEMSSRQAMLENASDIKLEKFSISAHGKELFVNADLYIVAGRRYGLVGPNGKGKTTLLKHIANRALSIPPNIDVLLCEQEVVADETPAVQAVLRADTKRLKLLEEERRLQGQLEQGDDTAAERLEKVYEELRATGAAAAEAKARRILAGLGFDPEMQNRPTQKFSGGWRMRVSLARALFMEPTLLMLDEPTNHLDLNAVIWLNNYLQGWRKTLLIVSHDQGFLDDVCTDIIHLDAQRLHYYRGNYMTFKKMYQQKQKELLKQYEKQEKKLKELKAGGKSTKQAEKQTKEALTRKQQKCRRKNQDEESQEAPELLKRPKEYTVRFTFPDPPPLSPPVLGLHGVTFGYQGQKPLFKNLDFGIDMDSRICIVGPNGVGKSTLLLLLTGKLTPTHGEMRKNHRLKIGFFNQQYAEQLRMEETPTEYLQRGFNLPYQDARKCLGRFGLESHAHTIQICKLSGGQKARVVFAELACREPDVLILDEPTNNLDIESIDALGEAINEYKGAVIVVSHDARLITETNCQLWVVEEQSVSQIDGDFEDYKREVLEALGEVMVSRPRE

Substance	solubility in G1/S (log2) (HeLa Kyoto [1])	solubility change mitosis (log2) (HeLa Kyoto [2])	thermal stability score (HeLa Kyoto [3]; [5])	thermal stability score (HeLa Kyoto [3]; cell cycle stage: mitosis)	melting temperature (HeLa Kyoto [4]; cell cycle stage: G1/S)	melting temperature (HeLa Kyoto [4]; cell cycle stage: mitosis)
MDKNELVQKAKLAEQAERYDDMAACMKSVTEQGAELSNEERNLLSVAYKNVVGARRSSWRVVSSIEQKTEGAEKKQQMAREYREKIETELRDICNDVLSLLEKFLIPNASQAESKVFYLKMKGDYYRYLAEVAAGDDKKGIVDQSQQAYQEAFEISKKEMQPTHPIRLGLALNFSVFYYEILNSPEKACSLAKTAFDEAIAELDTLSEESYKDSTLIMQLLRDNLTLWTSDTQGDEAEAGEGGEN [YWHAZ]	0.359	0.346	-3.76	-3.47	54.9 °C	54.8 °C
MEATGTDEVDKLKTKFISAWNNMKYSWVLKTKTYFSRNSPVLLLGKCYHFKYEDEDKTLPAESGCTIEDHVIAGNVEEFRKDFISRIWLTYREEFPQIEGSALTTDCGWGCTLRTGQMLLAQGLILHFLGRAWTWPDALNIENSDSESWTSHTVKKFTASFEASLSGEREFKTPTISLKETIGKYSDDHEMRNEVYHRKIISWFGDSPLALFGLHQLIEYGKKSGKKAGDWYGPAVVAHILRKAVEEARHPDLQGITIYVAQDCTVYNSDVIDKQSASMTSDNADDKAVIILVPVRLGGERTNTDYLEFVKGILSLEYCVGIIGGKPKQSYYFAGFQDDSLIYMDPHYCQSFVDVSIKDFPLETFHCPSPKKMSFRKMDPSCTIGFYCRNVQDFKRASEEITKMLKFSSKEKYPLFTFVNGHSRDYDFTSTTTNEEDLFSEDEKKQLKRFSTEEFVLL [ATG4C]	-1.32	0.268	-0.279	0.138	50.6 °C	50.3 °C
MASSGEDISNDDDDMHPAAAGMADGVHLLGFSDEILLHILSHVPSTDLILNVRRTCRKLAALCLDKSLIHTVLLQKDYQASEDKVRQLVKEIGREIQQLSMAGCYWLPGSTVEHVARCRSLVKVNLSGCHLTSLRLSKMLSALQHLRSLAIDVSPGFDASQLSSECKATLSRVRELKQTLFTPSYGVVPCCTSLEKLLLYFEILDRTREGAILSGQLMVGQSNVPHYQNLRVFYARLAPGYINQEVVRLYLAVLSDRTPQNLHAFLISVPGSFAESGATKNLLDSMARNVVLDALQLPKSWLNGSSLLQHMKFNNPFYFSFSRCTLSGGHLIQQVINGGKDLRSLASLNLSGCVHCLSPDSLLRKAEDDIDSSILETLVASCCNLRHLNLSAAHHHSSEGLGRHLCQLLARLRHLRSLSLPVCSVADSAPRADRAPAQPAMHAVPRGFGKKVRVGVQSCPSPFSGQACPQPSSVFWSLLKNLPFLEHLELIGSNFSSAMPRNEPAIRNSLPPCSRAQSVGDSEVAAIGQLAFLRHLTLAQLPSVLTGSGLVNIGLQCQQLRSLSLANLGMMGKVVYMPALSDMLKHCKRLRDLRLEQPYFSANAQFFQALSQCPSLQRLCLVSRSGTLQPDAVLAFMARCLQVVMCHLFTGESLATCKSLQQSLLRSFQAERPALNVVIFPLLHEGLTDVIRDVPLVHLDEITLFKSRVAEEPPNLWW [FBXL18]	0.1	-0.164	-1.04	-1.17	53.4 °C	53 °C
ABCF1	-0.133	0.0453	-2.34	-2.94	52.7 °C	52.3 °C
MGSRVSREDFEWVYTDQPHADRRREILAKYPEIKSLMKPDPNLIWIIIMMVLTQLGAFYIVKDLDWKWVIFGAYAFGSCINHSMTLAIHEIAHNAAFGNCKAMWNRWFGMFANLPIGIPYSISFKRYHMDHHRYLGADGVDVDIPTDFEGWFFCTAFRKFIWVILQPLFYAFRPLFINPKPITYLEVINTVAQVTFDILIYYFLGIKSLVYMLAASLLGLGLHPISGHFIAEHYMFLKGHETYSYYGPLNLLTFNVGYHNEHHDFPNIPGKSLPLVRKIAAEYYDNLPHYNSWIKVLYDFVMDDTISPYSRMKRHQKGEMVLE [DEGS1]	-0.186	-0.264	-0.898	-1.88	55 °C	55.2 °C
MLPLLRCVPRVLGSSVAGLRAAAPASPFRQLLQPAPRLCTRPFGLLSVRAGSERRPGLLRPRGPCACGCGCGSLHTDGDKAFVDFLSDEIKEERKIQKHKTLPKMSGGWELELNGTEAKLVRKVAGEKITVTFNINNSIPPTFDGEEEPSQGQKVEEQEPELTSTPNFVVEVIKNDDGKKALVLDCHYPEDEVGQEDEAESDIFSIREVSFQSTGESEWKDTNYTLNTDSLDWALYDHLMDFLADRGVDNTFADELVELSTALEHQEYITFLEDLKSFVKSQ [C1QBP]	0.515	0.179	-1.11	-3.14	52.6 °C	52 °C
PTPN23	0.216	-0.134	-1.39	-2.28	49.6 °C	49.2 °C
NCAPD3	-0.316	-0.0894	0.362	0.667	48.4 °C	49.8 °C
